# Results taken from the nanobody polyreactivity screen of Harvey et al. (2022).
# Assay: yeast display, Sf9 membrane polyspecificity reagent, FACS + sequencing; frameworks hold sequencing errors
# How it was run: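 After 36–48 hours of galactose induction, yeast (Saccharomyces cerevisiae BJ5465) displaying a synthetic nanobody library were stained at 4 °C for 1 hour with 10% biotinylated, detergent-solubilized Sf9 membrane reagent. Streptavidin microbeads enriched the stained cells before FACS sorting into low and high (top ~1%) gates on anti-HA and streptavidin fluorescence. Each clone's polyreactivity label reflects its gate of origin.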
row,Sequence,polyreactivity (PSR sort gate)
1,QVQLVESGGGLVQAGGSLRFSCAASGSTFKRYTMGWYRQAPGKERELVAAISTSSGSTYYADSVKGRFTISRDNAKNSVYLQMHSLKPEDTAVYYCAAVRLRQTYPKYNYWGQGTQVTVSS,high polyreactivity
2,QVQLVESGGGLVQAGGSLRLSCAAYGLTFDSYAMGWYRQAPGKERELVAAISYGGGSTNFADSVKGRFTISRDNAKNTVYLQLNSLKPVDTAVYYCGAEPGYYDEYGYWGQGTQVTVSS,low polyreactivity
3,QVQLVESGGGLVQAGGSLRLSCAASGFTFRWYAMGWYRQAPGKERELVAAITHSGGSTYYADSVKGRFTISRDNAKNTVYLQMNSLKPEDTAVYYCAAGYIRKYSAFRYNYWGQGTQVTVSS,high polyreactivity
4,QVQLVESGGGLVQAGGTLRLSCAASGRIFSYNAMGWYRQAPGKERELVAAITWRGGNTYYADSVKGRFTISRDNALNTVYLQMNSLQPEDTAVYYCAAQRGRWAPMYFWGQGTQVTVSS,high polyreactivity
5,QVHLVESGGGLVQAGGSLRLSCAASGRTFINYAMGWYRQAPGKERELVAAITTGGRTNYADSVKGRFTISRDNAKNTVYLQMNSLKPEDTAVYYCAADRYYWGRYTLNYWGQGTQVTVSS,low polyreactivity
6,QVQLVESGGGLVQAGGSLRLSCAASGRTFGRYAMGWYRQAPGKERELVAAITRSGGSTNYADSVKGRFTISRDNAKNTVYLQMNSLKPEDTAVYYCARRGYSVRTPEGYYWGQGTQVTVSS,high polyreactivity
7,QVQLVESGGGLVQAGGSLRLTCAASGNTFVSNAMGWYRQAPGKERELVAAINSGGSTNYADSVKGRFTISRDNAKNTVYLQMNSLKPEDTAVYYCNKDYDYPQRYWMDFWGQGTQVTVSS,low polyreactivity
8,QVQLVESGGGLVQAGGSHRLSCAASGFIFYYYTRGWYRQAPGKERELVAAISRGRGSTYYADSVKGRFTISRDNAKNTVYLQMNSLKPEDTAVYYCARTDRRLGAHQGDYWGQGTQVTVSS,high polyreactivity
9,QVQLVESGGGLVQAGGSLRLSCAASGSIFRWNAMGWYRQAPGKERELVAAIDSGGSTYADSVKGRFTISRDNAKNTVYLQMNSLKPEDTAVYYCAAAIPDEWPYDYWGQGTQVTVSS,low polyreactivity
10,QVQIVESGGGLVQAGGSLRLSCAASGFTFGHYAMGWYRQAPGKERELVAAISYSGVRTYYADSVKGRFTISRDNAKNTVYLQMNSLKPEDTAVYYCNKYPAHYQTRRYDYWGHGTQVTVSS,high polyreactivity
11,QVQLVESGGVLVQAGGSLRLSCAASGSIFGIYTMGWYIHATGKERELVAAISWSGGSTYYADSVKGRFTISRDNAKNTVFLQMNSLKPEDTAVYYCAAVPWASDGYDSWGQGTQVTVSS,low polyreactivity
12,QVQLVESGGGLVQAGGSLRLSCAASGSIFVNYAMGWFRQAPGKERELVAAITRSGGRTYYADSVKGRFTISRDNAKNTVYLQMNSLKPEDTAVYYCAARLGYAGNRDGSWGQGTQVTVSS,high polyreactivity
13,QVQLVESGGGLVQAGGSLRLSCAASGSIFPGYAMGWYRQAPGKERELVATITWSASETYYADSVKGRFTISRDNAKYTVYLQMNSLKPEDTAVYYCNAEVYELFVVYSALDYWGQGTQVTVSS,low polyreactivity
14,QVQLVESGGGLVQAGGSLRLSCAASGSIFARYAMGWYRQAPGKERELVAAITRSGVSTYYADSVKGRFTISRDNAKNTVYLQMNSLKPEDTAVYNCNAYYPIRSTPYGYYYWGQGTQVTVSS,high polyreactivity
15,QVQLVESGGGLVQAGGSLRLSCAASGFIFSRYAMGWYRQAPGKERELVAAISWSGASTYYADSVKGRFTISRDNAKNTVYLQMNSLKPEYTAVYYCNAVVTYHYSVSSVGSRYDYWGQGTQVTVSS,high polyreactivity
16,QVQLVESGGGLVQAGGSLRLTCAASGNIFYSYAMGWYRQAPGKERELVAAITIDGSTTYADSVKGRFTISRDNAKNTVYLQMNSLKPEDTAVYYCAKEGEAYPATYRYQFDYWGQGTQVTVSS,low polyreactivity
17,QVQLVESGGGLVQAGGSLRLSCAASGRTFRYYAMGWYRQAPGKERELVAAITSGGSTYYADSVKGRFTISRDNAKNTVYLLMNSLKPEDTAAYYCAAEYVYPYWNGFDYWGQGTQVTVSS,low polyreactivity
18,QVQLVESGGGLVQAGGSLRLSCAASGRIFQYYAMGWYRPAPGKEREFVAAISDSGSNTYYADSVMGRFTISRDNAKNTVYLQMNSLKPEDTAVYYSAALYATRALFYYWGQGTQGTVSS,low polyreactivity
19,QVQLVESGVGLVQAGGSLRLSCADSGSNFRYTMGCYRQAPWKERELVAAINRGASTYYADSVKGRFTISRDNAKKTVYLQMNSLKPVDNAVYYCAASVGTQGYHGDYWGQGTQVTVSS,high polyreactivity
20,QVKLVESGGGLVQAGGSLRLSCAASGRTFAWYTMGRYRQAPGKERALVAAISGSGGSTYYADSVKGRFTISRDNAKNTVYLQLNSLKPEDTDVYYCARRVDSYYCHTRYYYWGQGTQVTVSS,high polyreactivity
21,QVQLVESGVGLVQAGGSLRLSCAASGRTFVNNAMGWYRQAPGKERELVAAISQSGSRTYYADSVKRRFTISRDNAKNTVYLQMNSLKPEDTAVYYCAARGARYSTSDYWGQGTQVTVSS,high polyreactivity
22,QVHLVESGGGLVQAGGSLRLSCAASGRTFATNTMGWYRQAPGKEREFVAAISRGGVSTSYADSVKGRFTISRDNAKNTVYLQMNSLKPEDTAVYYCAAKHYGFNRNHRHSYDYWGQGTQVTVSS,high polyreactivity

row,Sequence,polyreactivity (PSR sort gate)
1,QVQLAESGGCLVQAGGRLRLSCAASGSTFPHYAMGWYRQAPGKERELVAAISVRGGRTYYADSVKGRFTISRDNAKNNDSLQMNSLKPEDTAVYYCNKYYDVTKYGYWGQGTQVTVSS,high polyreactivity
2,QVQLVESGGGLVQAGGSLRLSCAASGITFGANALGWYRQAPGKERELVAEITWSGGDTYYADSVKGRFTISRDNAKNTVYLQMNSLKPEDTAVYYCNALQPGLGSPLGEYDYWGQGTQVTVSS,low polyreactivity
3,QVQLVESGGGLVQAGGSLRLSCAASGRTFIRYAMGWYRQAPGKERELVAAITQSGGSTYYADSVKGRFTISRDNAKNTVYLQMNSLKPEDTAVYYCAAEYRYPGWSYNYWGQGTQVTVSS,high polyreactivity
4,QVQLVESGGGLVQAGGSLRLSCAASVFTFQYYAMGWYRQAPGKERELVAAISRRGGRTDYADSVKGRFTISRDNAKNTVYLQMNSLKPEDTAVYYCARDPGAFEYWGQGTQVTLSS,high polyreactivity
5,QFQLVESGVGLVQAGGSLRFSCAASGRIFMPNAMGWYRQSPGKEREFVASISWSGGSTYYADSVKGRFTISRDNAKTTDYLQMNSLKPEDTAVYYCNARYGKRYYYWGQGTQVTVSS,low polyreactivity
6,QVQLVESGGGLVQAGGSLRLSCAASGIIFDYNAMGWYRQAPGKERELVAAITSTDNTNYADSVKGRFTISRDNAKNTVYLQMNSLKPEDTAVYYCNSVYWLSVVYAMDYWGQGTQVTVSS,low polyreactivity
7,HVQLVESGGGLVQAGGSLRLSCAASGSIFWGNAMGWYRQAAGKERELVAAISWGGGRTYYADSVKGRFTISRDTAKNTVYLQMNSLKPEDTAVYYCNTRYPYVVSTGYDYWGQGTQVTVSS,high polyreactivity
8,QVQLVESGGGLVQAGGSLRLSCAASGSIFQPYAMGWYRPAPGKERELVAAINGRGGSTHYADSVKGRFTISRDNAKNTVYLQMNSLNPEDTAVYYCAATWAYPGSGYVYFYGNDYWGQGTQVTVSS,high polyreactivity
9,QVQLVESGGGLVQAGGSLRLSCAASGSTISRYAMGWYRHAPGKERELVAAISWNGGDTYYADSVKGRFTISRDYAKNTVFLQMNSLKPEDTAVYYCNTPRRITRAGYWAGSRYNYWGQGTQVTVSS,high polyreactivity
10,QVQLVESGGGLVQAGGSLRLSCAASGSTFRRYAMGWYRQAPGKEREFVAAITWSGGNTYADSVKGRFTISRDNAKNTVYLQMNSLKPEDTAVYYCAVQLVYDHYRYDYWGQGTQVTVSS,high polyreactivity
11,QVQLVESGGGLVQAGGSLRLSCAASGSIFGYYAMGWYRQAPGKERELVAAITTRGGRTYYADSVKGRFTISRDNAKNTVYFQINSLKPEDTAVYYCAARTGRGRYDYWGQGTQVTVSS,high polyreactivity
12,QVQLVESGGGLVQAGGSLRLSCAASGIIFPGYAMGLYRQAPGKERELVAAISRSGASTYYADSVKGRFTISRDNAKNTVYLQMNSLKPEDTEVYYCAAEWYLGGEYRRYDYWGQGTQVTVSS,high polyreactivity
13,QVQLVESGGGLVQAGGSLRLSCASSGSIFFANAIGWYRQAPGKERELVATISWRGGSTYYAYSVKGRFTISRDIAKNSVYLQKNSLKPEDTAVYYCAAGYYPYWGQGTQLTVSS,low polyreactivity
14,QVQLVESGGGLVQAGGSLRLSCAASGFIFEPYAMGWYRQAPGKERELVAAISSGGSTYADSVKGRFTISRDNAKNTVYLQMISLKPEDTAVYYCAADSYYSVWGFYYWGQGTQVTVSS,low polyreactivity
15,QVQLVDSVGGLVQAGGSLPLICAASGSTFGNYAKGWYRQAPGKERELVAAINSGDSTSYADSVKGRFTISRDNANNTVYLHMNSLKPEDTAVYYCSVRPRRNQYGYWGQGTQLTVSS,low polyreactivity
16,QVQLVESGGGLFQAGGSLSLSCAASGFIFSGYAMGWYRQAPGTERELVAAITWSCSNTFYADSVKGRFTISRDNAKITVFLQMNSLKPEDTAVYYCTAVSKYKRSDYYYWGQGTQVTVSS,high polyreactivity
17,QVQLVESGGGLVQAGGSLRLSCAASGYIFGINDMAWYIQAPGKERELVAAIRISGGSTYYADSVKGRFTISRDNAKNTVYLQMNSLKPEDTAVYYCNAQDDGGLEWRYEEDDYWGQGTQVTVSS,low polyreactivity
18,QVHLVDSGGGLVQAGGSLRLSCPASGLTFPSNSMGCYRQAPGKERELVAAISKRGGRTYYADSVKGRFTISRDNAKNTVYLQMNSLKPEDTAVYYCATLYAYPGTVQYAGYNYWGQGTQVTVSS,high polyreactivity
19,QVQLVESGVGLVQAGGSLRLRCAASGSIFRRYAMGWYRQAPGKERELVARITSSSGTTTYADSVKGRFTISRYNSKNNVYLQMNSLKPEDTAVYYCAAAWWHAYYGKNYYWGQGTQVTVSS,high polyreactivity
20,QVQLVESGGGLVQAGGSLRLSCAASGFTFDKYGMGWYRQAPGKERELVAAISSGGSTNYADSVKGRFTISRDNAKNTVYLQMNSLKPEDSAVYYCAARYYRYGRFRAYSWWTYGYWGQGTQVTVSS,high polyreactivity
21,QVQLVESGGGLVQAGGSLRLSCAASGSIFEPYTMGWYRQAPGKERELVAAITGSGGSTFYADSVKGRFTISRDNAKNTVYLQMNSLKPEDTAVYYCNAFAYPYTDVDYWGQGTQVTVSS,low polyreactivity
